By EC50 is commonly meant the concentration needed to bring the measured effect to its halfway point.

The values that follow come from patent publication US20220363752A1 (VERSEAU THERAPEUTICS, published 2022).

Primed or numbered codes have the meaning given here. Biotin′ = not defined here

Test [1] deals with T1, LRRC25(21-40) biotin peptide (human, not fully specified; N-terminal NH2; C-terminal GGK-Biotin; native Cys changed to Ser).
T1 peptide: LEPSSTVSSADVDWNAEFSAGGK
Put plainly: peptide ELISA. Here is the method: (§1) To establish if functional chimera anti-LRRC25 antibodies recognize particular regions of LRRC25, ELISA experiments were performed using 10 plate-immobilized 16- to 20-mer overlapping LRRC25(ECD) biotin peptides (Table 7). Biotinylated human LRRC25-His served as a positive control. A typical ELISA was performed by coating overnight at 4° C., 3 ug/mL/25 ul per well of streptavidin (Jackson Immunoresearch, Cat. #016-030-084) in PBS in half-area high binding microtiter wells (Corning Cat. #3690). […] Biotin peptides or biotinylated human LRRC25-His protein were added in duplicate (2 ug/mL/25 ul per well) in assay buffer (blocking buffer containing 0.05% tween 20) and the plate incubated for 45 min at 37° C. The plate was washed as before, 20 nM anti-LRRC25 antibodies in assay buffer added in duplicate into appropriate wells, and the plate incubated as before. The plate was washed and HRP-conjugated secondary antibody in assay buffer added [25 ul per well; goat anti-human IgG (Jackson Immunoresearch, Cat. #715-035-150)], and incubated as before. Antibody bound to plate-immobilized peptide(s) or protein was determined at A450 nm using HRP substrate (3,3′,5,5′-tetramethylbenzidine (TMB); eBioscience; Cat. #00-4201-56); 100 μl/well).
On the technique in general: In an ELISA, binding on a coated surface is turned into a signal by an enzyme label.

The target in test [2] is T2, LRRC25(36-55) biotin peptide (human, not fully specified; N-terminal NH2; C-terminal GGK-Biotin; native Cys changed to Ser).
T2 peptide: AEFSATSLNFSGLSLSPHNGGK
The test can be described thus: peptide ELISA. The protocol:
as §1

The target of test [3] is T3, LRRC25(51-69) biotin peptide (human, not fully specified; N-terminal acetyl; C-terminal GGK-Biotin).
T3 peptide: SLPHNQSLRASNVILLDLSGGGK
Put plainly: peptide ELISA. Here is the method:
as §1

The target of test [4] is T4, LRRC25(66-85) biotin peptide (human, not fully specified; N-terminal acetyl; C-terminal GGK-Biotin).
T4 peptide: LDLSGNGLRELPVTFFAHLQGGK
Put plainly: peptide ELISA. The protocol: as §1

Test [5] has as its target T5, LRRC25(81-100) biotin peptide (human, not fully specified; N-terminal acetyl; C-terminal GGK-Biotin).
T5 peptide: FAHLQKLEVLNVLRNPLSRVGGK
Put plainly: peptide ELISA. The protocol: as §1

Test [6] has as its target T6, LRRC25(96-115) biotin peptide (human, not fully specified; N-terminal acetyl; C-terminal GGK-Biotin; native Cys changed to Ser).
T6 construct: also called Biotin LRRC25 (96-115) peptide
T6 peptide: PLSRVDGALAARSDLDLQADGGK
Put plainly: peptide ELISA. Here is the method:
as §1

Test [7] addresses T7, LRRC25(111-130) biotin peptide (human, not fully specified; N-terminal acetyl; C-terminal GGK-Biotin; native Cys changed to Ser).
T7 peptide: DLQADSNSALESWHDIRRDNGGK
The test can be described thus: peptide ELISA. Here is the method:
as §1

In test [8] the target is T8, LRRC25(126-145) biotin peptide (human, not fully specified; N-terminal acetyl; C-terminal GGK-Biotin; native Cys changed to Ser).
T8 peptide: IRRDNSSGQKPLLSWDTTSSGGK
Put plainly: peptide ELISA. Here is the method: as §1

Test [9] deals with T9, LRRC25(141-159) biotin peptide (human, not fully specified; N-terminal acetyl; C-terminal GGK-Biotin; native Cys changed to Ser).
T9 peptide: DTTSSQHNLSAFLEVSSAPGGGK
Put plainly: peptide ELISA. The protocol: as §1

The target in test [10] is T10, LRRC25(150-165) biotin peptide (human).
T10 peptide: Ac-SAFLEVSSAPGLASATGG-{Biotin′}
Put plainly: peptide ELISA. The protocol: as §1

Test [11] has as its target T11, His-tagged human LRRC25 extracellular domain protein, human LRRC25-His (human, UniProt Q8N386 21-165).
T11 construct: The entry holds the extracellular domain, a GSG linker and the His tag; also called LRRC25(ECD)-HIS
The test can be described thus: ELISA, plate-immobilized antigen. Here is the method:
To establish the relative binding strengths of anti-LRRC25 antibodies against human LRRC25, and their cross-reactivity with cynomolgus monkey LRRC25, antibody binding curve analyses were performed and EC50 values against plate-immobilized recombinant human and cyno LRRC25 proteins were determined.
(§2) A typical ELISA was performed by coating overnight in PBS, pH 7.4, at 4° C. in high binding microtiter wells with 1 ug/mL/100 ul per well of human LRRC25-His or cyno LRRC25-His. An anti-human LRRC25 antibody (2A3, LS Bio, LS-C174039-100) and anti-HIS-HRP (Miltenyi Biotec; 130-092-783) served as coating controls for the human and cyno LRRC25 proteins, respectively. […] Anti-LRRC25 antibodies were added (100 ul per well) at 500 nM and serially diluted 3-fold in assay buffer (1% skimmed milk in PBS, pH 7.4). The plate was incubated with gentle agitation for 1 h at room temperature. The plate was washed 3× and HRP-conjugated secondary antibody in assay buffer added [100 ul per well; goat anti-human IgG (Jackson Immunoresearch, cat #715-035-150)], and the plate was incubated as before. Antibody bound to plate-immobilized LRRC25(ECD)-HIS was determined at A450 nm using HRP substrate (3,3′,5,5′-tetramethylbenzidine (TMB); eBioscience; 00-4201-56); 100 μl/well).

The target of test [12] is T12, His-tagged cynomolgus monkey LRRC25 extracellular domain protein, cyno LRRC25-His (cynomolgus monkey).
T12 construct: The entry holds the extracellular domain, a GSG linker and the His tag
Put plainly: ELISA, plate-immobilized cyno LRRC25-His. The protocol: as §2

Test [13] has as its target T13, biotinylated human LRRC25-His protein (human, UniProt Q8N386 21-165, biotinylated (sites not given)).
T13 construct: also called Biotin LRRC25-His; biotinylated LRRC25 protein
Put plainly: ELISA, 20 nM antibody, biotinylated antigen on streptavidin plate. Here is the method: as §1

The target of test [14] is T6, LRRC25(96-115) biotin peptide. Described as above. Here is the method: as §1

T11 sequence (Q8N386 other isoform, or with tags, fused parts or gaps): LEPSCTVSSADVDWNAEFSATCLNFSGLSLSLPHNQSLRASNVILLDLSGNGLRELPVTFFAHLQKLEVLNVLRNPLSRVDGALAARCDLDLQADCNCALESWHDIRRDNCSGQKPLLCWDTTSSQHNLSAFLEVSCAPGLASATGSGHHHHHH
T13 sequence (Q8N386 other isoform, or with tags, fused parts or gaps): as above
T12 sequence (chain, as listed by the source limits assumed): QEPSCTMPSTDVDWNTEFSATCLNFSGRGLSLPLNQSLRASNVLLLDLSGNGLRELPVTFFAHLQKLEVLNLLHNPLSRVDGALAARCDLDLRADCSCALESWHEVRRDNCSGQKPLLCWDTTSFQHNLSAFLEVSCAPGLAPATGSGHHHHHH

B1: anti-LRRC25 chimeric antibody 1G08 (antibody, human IgG4, V domains shown)
VH: DVQLVESGGGLVKPGGSLKLSCAASGFTFSNYAMSWVRQTPEKRLEWVASISRGGNTYYPDSVKGRFTISRDNARNILYLQMSSLRSEDTAIYYCTRGNYGSSPFAYWGQGTLVTVSA
VL: DIVLTQSPASLAVSLGQRATISCRASESVDSYGNSFMHWYQQKPGQPPKLLIYLASNLESGVPARFSGSGSRTDFTLTIDPVEADDAATYYCQQNNEDPWTFGGGTKLEIKR
As to B1, the binding result in test [1], in [2], in test [3], in [4], in test [5] and in [6] was “no binding (tested: 20 nM)” throughout. The binding result is listed as “no binding (tested: 20 nM)” in test [7]; “no binding (tested: 20 nM)” in [8]; “no binding (tested: 20 nM)” in test [9]; “no binding (tested: 20 nM)” in test [10]; “no binding (tested: 500 nM)” in test [12]. This molecule also returned an EC50 in test [11] of 3.2 nM. Further, the figures for the “absorbance (A450)” value in test [13] and in test [14] were 0.324 A450 and 0.099 A450, respectively.

B2: anti-LRRC25 chimeric antibody 3E01 (antibody, human IgG4, V domains shown)
VH: EEKLEESGGGLVKPGGSLKLSCAVSGFTLSSYAMSWVRQTPEKRLEWVASISRGGNTYYPDSVKGRFTISRDNGRNILNLQMSSLRSEDTAIYYCTRGGGSTMITSLFAYWGQGTLVTVSA
VL: DIVMTQAAFSNPVTLGTSASIFCRSSKSLLHSNGITYLYWYLQKPGQSPQLLIYQMSNLASGVPDRFSSSGSGTDFTLRISRVEAEDVGVYYCAQNLELPYTFGGGTKLEIKR
As for B2, the binding result in test [1], in [2], in test [3], in test [4], in [5] and in [6] was “no binding (tested: 20 nM)” throughout. The binding result in [7] is recorded as “no binding (tested: 20 nM)”; in test [8], “no binding (tested: 20 nM)”; in test [9], “no binding (tested: 20 nM)”; in [10], “no binding (tested: 20 nM)”; in test [12], “no binding (tested: 500 nM)”. In addition, the concentration for a half-maximal effect (EC50) in test [11] came out at 45.1 nM. Besides, the “absorbance (A450)” value is 0.341 A450 in test [13] and 0.11 A450 in [14].

B3: anti-LRRC25 chimeric antibody 3F04 (antibody, human IgG4)
heavy: DVQLVESGGGLVKPGGSLKLSCAVSGFTLSSYAMSWVRQTPEKRLEWVASISRGGSTYYPDSVKGRFTISRDNGRNILNLQMSSLRSEDTAIYYCARGGGSTMITSLFAYWGQGTLVTVSAASTKGPSVFPLAPCSRSTSESTAALGCLVKDYFPEPVTVSWNSGALTSGVHTFPAVLQSSGLYSLSSVVTVPSSSLGTKTYTCNVDHKPSNTKVDKRVESKYGPPCPPCPAPEFLGGPSVFLFPPKPKDTLMISRTPEVTCVVVDVSQEDPEVQFNWYVDGVEVHNAKTKPREEQFNSTYRWSVLTVLHQDWLNGKEYKCKVSNKGLPSSIEKTISKAKGQPREPQVYTLPPSQEEMTKNQVSLTCLVKGFYPSDIAVEWESNGQPENNYKTTPPVLDSDGSFFLYSRLTVDKSRWQEGNVFSCSVMHEALHNHYTQKSLSLSLGK
light: DIVMTQDAFSNPVTLGTSASISCRSSKSLLHSNGITYLYWYLQKPGQSPQLLIYQMSNLASGVPDRFSSSGSGTDFTLRISRVEAEDVGVYYCAQNLELPFTFGSGTKLEIKRTVAAPSVFIFPPSDEQLKSGTASVVCLLNNFYPREAKVQWKVDNALQSGNSQESVTEQDSKDSTYSLSSTLTLSKADYEKHKVYACEVTHQGLSSPVTKSFNRGEC
On to B3, for which the binding result in [1], in test [2], in test [3], in test [4], in test [5] and in test [6] was “no binding (tested: 20 nM)” each time. For the same molecule, the binding result in [7] is “no binding (tested: 20 nM)”; in test [8] it was “no binding (tested: 20 nM)”; in test [9], “no binding (tested: 20 nM)”; in test [10], “no binding (tested: 20 nM)”; in test [12], “no binding (tested: 500 nM)”. Also, the 50% effective concentration (EC50) in test [11] amounted to 63 nM. The “absorbance (A450)” value amounted to 0.324 A450 in test [13] and 0.156 A450 in [14].

B4: anti-LRRC25 chimeric antibody 3F06 (antibody, human IgG4, V domains shown)
VH: DVMLVESGGGLVKPGGSLKLSCAASGFTFSSYAMSWVRQTPDKRLEWVASISSSGNTYYPDTMKGRFTISRDNARNILYLQMSSLRSEDTAMYYCARGLTGTLFAYWGQGTLVTVSA
VL: DIVMTQDAPSVPVTPGESVSISCRSSKSLLHSNGITFLYWFLQKPGQSPQLLIYQMSNLASGVPDRFSSSGSGTDFTLRISRVEAEDVGVYYCAQNLELPFTFGSGTKLEIGR
For the molecule B4, the binding result in test [1], in [2], in test [3], in [4], in test [5] and in test [7] was “no binding (tested: 20 nM)” in each case. Besides, the binding result in test [8] is on record as “no binding (tested: 20 nM)”; in test [9], “no binding (tested: 20 nM)”; in test [10], “no binding (tested: 20 nM)”; in test [12], “no binding (tested: 500 nM)”. Also, the half-maximal effective concentration (EC50) in [11] came out at 1.9 nM. For the same molecule, the “absorbance (A450)” value was determined as 1.23 A450 in test [13] and 2.8 A450 in test [14].
